According to patent US20200024330A1:

Tests used:
Assay in all cases: cell-based or functional assay
[1] = target: HIV-1 92BR020 envelope glycoprotein (Env), clade B (HIV-1)
[2] = target: HIV-1 92RW020 envelope glycoprotein (Env), clade A (HIV-1)
[3] = target: HIV-1 92TH021 envelope glycoprotein (Env), clade AE (HIV-1)
[4] = target: HIV-1 92UG005 envelope glycoprotein (Env), clade D (HIV-1)
[5] = target: HIV-1 92UG024 envelope glycoprotein (Env), clade D (HIV-1)
[6] = target: HIV-1 93IN905 envelope glycoprotein (Env), clade C (HIV-1)
[7] = target: HIV-1 93UG077 envelope glycoprotein (Env), clade A (HIV-1)
[8] = target: HIV-1 94UG103 envelope glycoprotein (Env), clade A (HIV-1)
[9] = target: HIV-1 APV13 envelope glycoprotein (Env), clade B (HIV-1)
[10] = target: HIV-1 APV17 envelope glycoprotein (Env), clade B (HIV-1)
[11] = target: HIV-1 APV6 envelope glycoprotein (Env), clade B (HIV-1)
[12] = target: HIV-1 CMU02 envelope glycoprotein (Env), clade AE (HIV-1)
[13] = target: HIV-1 JRCSF envelope glycoprotein (Env), clade B (HIV-1) (UniProt P20871)
[14] = target: HIV-1 JRFL envelope glycoprotein (Env), clade B (HIV-1)
[15] = target: HIV-1 MGRM-A-010 envelope glycoprotein (Env), clade A (HIV-1)
[16] = target: HIV-1 MGRM-AG-005 envelope glycoprotein (Env), clade AG (HIV-1)
[17] = target: HIV-1 MGRM-C-026 envelope glycoprotein (Env), clade C (HIV-1)
[18] = target: HIV-1 MGRM-C-027 envelope glycoprotein (Env), clade C (HIV-1)
[19] = target: HIV-1 MGRM-C-028 envelope glycoprotein (Env), clade C (HIV-1)
[20] = target: HIV-1 MGRM-D-001 envelope glycoprotein (Env), clade D (HIV-1)
[21] = target: HIV-1 MGRM-D-018 envelope glycoprotein (Env), clade D (HIV-1)
[22] = target: HIV-1 NL43 envelope glycoprotein (Env), clade B (HIV-1)
[23] = target: aMLV envelope protein (negative control virus)

B1: PGT-135 monoclonal antibody (clones 5343_B08 and 5344_E16) (antibody, V domains shown)
VH: QLQMQESGPGLVKPSETLSLSCTVSGDSIRGGEWGDKDYHWGWVRHSAGKGLEWIGSIHWRGTTHYKESLRRRVSMSIDTSRNWFSLRLASVTAADTAVYFCARHRHHDVFMLVPIAGWFDVWGPGVQVTVSS
VL: EIVMTQSPDTLSVSPGETVTLSCRASQNINKNLAWYQYKPGQSPRLVIFETYSKIAAFPARFVASGSGTEFTLTINNMQSEDVAVYYCQQYEEWPRTFGQGTKVDIK
IC50 (neutralization of pseudovirus) [1]: 0.104 µg/mL
IC80 (neutralization of pseudovirus) [1]: 0.253 µg/mL
IC90 (neutralization of pseudovirus) [1]: 0.43 µg/mL
IC95 (neutralization of pseudovirus) [1]: 0.72 µg/mL
IC50 (neutralization of pseudovirus) [2]: 0.157 µg/mL
IC80 (neutralization of pseudovirus) [2]: 3.46 µg/mL
IC90 (neutralization of pseudovirus) [2]: > 10 µg/mL
IC95 (neutralization of pseudovirus) [2]: > 10 µg/mL
IC50 (neutralization of pseudovirus) [3]: > 10 µg/mL
IC80 (neutralization of pseudovirus) [3]: > 10 µg/mL
IC90 (neutralization of pseudovirus) [3]: > 10 µg/mL
IC95 (neutralization of pseudovirus) [3]: > 10 µg/mL
IC50 (neutralization of pseudovirus) [4]: > 10 µg/mL
IC80 (neutralization of pseudovirus) [4]: > 10 µg/mL
IC90 (neutralization of pseudovirus) [4]: > 10 µg/mL
IC95 (neutralization of pseudovirus) [4]: > 10 µg/mL
IC50 (neutralization of pseudovirus) [5]: 0.0139 µg/mL
IC80 (neutralization of pseudovirus) [5]: 0.054 µg/mL
IC90 (neutralization of pseudovirus) [5]: 0.122 µg/mL
IC95 (neutralization of pseudovirus) [5]: 0.267 µg/mL
IC50 (neutralization of pseudovirus) [6]: 0.0183 µg/mL
IC80 (neutralization of pseudovirus) [6]: 0.0648 µg/mL
IC90 (neutralization of pseudovirus) [6]: 0.136 µg/mL
IC95 (neutralization of pseudovirus) [6]: 0.268 µg/mL
IC50 (neutralization of pseudovirus) [7]: > 10 µg/mL
IC80 (neutralization of pseudovirus) [7]: > 10 µg/mL
IC90 (neutralization of pseudovirus) [7]: > 10 µg/mL
IC95 (neutralization of pseudovirus) [7]: > 10 µg/mL
IC50 (neutralization of pseudovirus) [8]: > 10 µg/mL
IC80 (neutralization of pseudovirus) [8]: > 10 µg/mL
IC90 (neutralization of pseudovirus) [8]: > 10 µg/mL
IC95 (neutralization of pseudovirus) [8]: > 10 µg/mL
IC50 (neutralization of pseudovirus) [9]: 0.545 µg/mL
IC80 (neutralization of pseudovirus) [9]: > 10 µg/mL
IC90 (neutralization of pseudovirus) [9]: > 10 µg/mL
IC95 (neutralization of pseudovirus) [9]: > 10 µg/mL
IC50 (neutralization of pseudovirus) [10]: > 10 µg/mL
IC80 (neutralization of pseudovirus) [10]: > 10 µg/mL
IC90 (neutralization of pseudovirus) [10]: > 10 µg/mL
IC95 (neutralization of pseudovirus) [10]: > 10 µg/mL
IC50 (neutralization of pseudovirus) [11]: > 10 µg/mL
IC80 (neutralization of pseudovirus) [11]: > 10 µg/mL
IC90 (neutralization of pseudovirus) [11]: > 10 µg/mL
IC95 (neutralization of pseudovirus) [11]: > 10 µg/mL
IC50 (neutralization of pseudovirus) [12]: > 10 µg/mL
IC80 (neutralization of pseudovirus) [12]: > 10 µg/mL
IC90 (neutralization of pseudovirus) [12]: > 10 µg/mL
IC95 (neutralization of pseudovirus) [12]: > 10 µg/mL
IC50 (neutralization of pseudovirus) [13]: 0.113 µg/mL
IC80 (neutralization of pseudovirus) [13]: 0.503 µg/mL
IC90 (neutralization of pseudovirus) [13]: 1.47 µg/mL
IC95 (neutralization of pseudovirus) [13]: 8.3 µg/mL
IC50 (neutralization of pseudovirus) [14]: > 10 µg/mL
IC80 (neutralization of pseudovirus) [14]: > 10 µg/mL
IC90 (neutralization of pseudovirus) [14]: > 10 µg/mL
IC95 (neutralization of pseudovirus) [14]: > 10 µg/mL
IC50 (neutralization of pseudovirus) [15]: > 10 µg/mL
IC80 (neutralization of pseudovirus) [15]: > 10 µg/mL
IC90 (neutralization of pseudovirus) [15]: > 10 µg/mL
IC95 (neutralization of pseudovirus) [15]: > 10 µg/mL
IC50 (neutralization of pseudovirus) [16]: > 10 µg/mL
IC80 (neutralization of pseudovirus) [16]: > 10 µg/mL
IC90 (neutralization of pseudovirus) [16]: > 10 µg/mL
IC95 (neutralization of pseudovirus) [16]: > 10 µg/mL
IC50 (neutralization of pseudovirus) [17]: 0.0123 µg/mL
IC80 (neutralization of pseudovirus) [17]: 0.0562 µg/mL
IC90 (neutralization of pseudovirus) [17]: 0.139 µg/mL
IC95 (neutralization of pseudovirus) [17]: 0.331 µg/mL
IC50 (neutralization of pseudovirus) [18]: > 10 µg/mL
IC80 (neutralization of pseudovirus) [18]: > 10 µg/mL
IC90 (neutralization of pseudovirus) [18]: > 10 µg/mL
IC95 (neutralization of pseudovirus) [18]: > 10 µg/mL
IC50 (neutralization of pseudovirus) [19]: 2.16 µg/mL
IC80 (neutralization of pseudovirus) [19]: > 10 µg/mL
IC90 (neutralization of pseudovirus) [19]: > 10 µg/mL
IC95 (neutralization of pseudovirus) [19]: > 10 µg/mL
IC50 (neutralization of pseudovirus) [20]: > 10 µg/mL
IC80 (neutralization of pseudovirus) [20]: > 10 µg/mL
IC90 (neutralization of pseudovirus) [20]: > 10 µg/mL
IC95 (neutralization of pseudovirus) [20]: > 10 µg/mL
IC50 (neutralization of pseudovirus) [21]: 0.0433 µg/mL
IC80 (neutralization of pseudovirus) [21]: 0.2 µg/mL
IC90 (neutralization of pseudovirus) [21]: > 10 µg/mL
IC95 (neutralization of pseudovirus) [21]: > 10 µg/mL
IC50 (neutralization of pseudovirus) [22]: 6.79 µg/mL
IC80 (neutralization of pseudovirus) [22]: > 10 µg/mL
IC90 (neutralization of pseudovirus) [22]: > 10 µg/mL
IC95 (neutralization of pseudovirus) [22]: > 10 µg/mL
IC50 (neutralization of pseudovirus) [23]: > 10 µg/mL
IC80 (neutralization of pseudovirus) [23]: > 10 µg/mL
IC90 (neutralization of pseudovirus) [23]: > 10 µg/mL
IC95 (neutralization of pseudovirus) [23]: > 10 µg/mL
